Paper PMC3945839 (Protein Science : A Publication of the Protein Society, 2014)
Where no end group is shown, it is not given here. The star is where a group is joined. BMPH = NNC(=O)CCN1C(=O)CC(*)C1=O

Columns and labels:
Assay in all cases: BLI
[1] = target: N-terminal methionine peptide (X-GMMSC, X = methionine)
[2] = target: N-terminal leucine peptide (X-GMMSC, X = leucine)
[3] = target: T1, Methionine aminopeptidase from E. coli (E. coli, UniProt P0AE18 1-264)
T1 sequence: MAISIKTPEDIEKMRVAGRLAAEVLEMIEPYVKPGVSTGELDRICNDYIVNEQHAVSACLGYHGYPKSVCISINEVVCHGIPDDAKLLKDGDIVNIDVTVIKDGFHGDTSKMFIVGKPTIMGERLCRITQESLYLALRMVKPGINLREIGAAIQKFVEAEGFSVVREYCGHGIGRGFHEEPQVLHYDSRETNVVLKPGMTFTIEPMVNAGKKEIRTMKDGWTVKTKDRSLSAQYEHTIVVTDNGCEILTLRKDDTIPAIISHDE

eLAP, designed leucine aminopeptidase derived from E. coli methionine aminopeptidase (from UniProt P0AE18 4-264) (enzyme)
Kd [1]: 19.1 µM
koff [1]: 0.00408 s⁻¹
kon [1]: 214 M⁻¹ s⁻¹
Kd [2]: 826 nM
koff [2]: 0.00142 s⁻¹
kon [2]: 1720 M⁻¹ s⁻¹

B1: N-terminal leucine peptide (X-GMMSC, X = leucine) (peptide)
peptide: LGMMSC(BMPH)
Kd [3]: 54.2 µM
koff [3]: 0.0147 s⁻¹
kon [3]: 271 M⁻¹ s⁻¹

B2: N-terminal methionine peptide (X-GMMSC, X = methionine) (peptide)
peptide: MGMMSC(BMPH)
Kd [3]: 2.65 µM
koff [3]: 0.00489 s⁻¹
kon [3]: 1850 M⁻¹ s⁻¹
